For one substance, percentage of antibody still able to bind results are on record in article PMC12850475.

Experiment [1] has as its target Protein A (SpA) (UniProt P38507). Nature of the experiment: SPR; Protein A amine-coupled to a CM5 chip (channel 2, 122 RU); antibodies eluted by pH (50 mM sodium acetate pH 3.0) as analyte at 12.5 and 25 µg/mL in HBS-P; qualitative; percent able to bind calculated from a standard curve; triplicate.
Experiment [2] has the same target. Nature of the experiment: SPR.

As to “human Immunoglobulin G purified from human blood plasma (antibody)”, the percentage of antibody still able to bind with Protein A (SpA) [1] was 46.7%; with Protein A (SpA) [2] it was 74.8%.
